Measurements from the NTF2 design screens of Basanta et al. (2020).

Experiment: protease stability score; higher = more stable; yeast display proteolysis, trypsin and chymotrypsin;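 also: relative to predicted unfolded state with 0 unfolded-like and 1 meaning tenfold more protease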

Sequence | protease stability score
TEHDQVLLQLSQELFHSVLTGDFDLWTKLMDPNVRVHIISEDEELHRVGWETMIRWLRRFLEELRIHSMRIRRVHHVDGVAHEDGELDGIVDGQRVITRVTLHVITINGRWHSVHLERL | 0.801
TEHEEISHRLMELLKEALQTGDEEHIRDLADPHVRVIVNGKNIHGREEVHMWLLILNTKFKGLTLRVHHVDIQGEKIILDTRIHVNGRSTTSHVELYVVDGVLKRAHLHIE | 1.45
TEHEEMIREALEFLIRLLETGDFERLHHLADPNVRLEQGDKEFIGREEWLRLFTEEIRQYKGITIHIHEVEVVDGRVYINGTVHQGDKIRRVIWVIIKIDGKWRIHSVHIR | 2.19
TEHEHEAEDALEKSIRHFHTGDEDTLKHLMDPNVRNDIDGKHIHGREDVLDIMIRIPNVRSEIDDVRVRHVNGRIEVIVDGILYFNGRTVEVRVILIMQKINGKWYITSLEIRRR | 0.628
TEHEKFKEEWVRMFLRDWLTGNENTLRHLADPDTLLEINGRIFHGMHTISRWTEEHLRRIDHLRLEMHTVDVIGDFAHVHGTLKLHVGDKEHHVTFHINLFTINGRIKSIIVKEE | 1.43
TEHHERHIKLMRKIIEALLTGDEEILRKLMDPDVRWEQGDKTVIGMEAVIKFLKDVSRHIRIKDIKIERQTDINGRMFTEGHLHIQYGDKEDTQEVHIELDVINGRIKSFHVEYR | 1.65
TEHRHLIEQHLRDLQHDMRTGDEDNLHKLADPHVRVDIDGRQLHGREAWSKTMFELRTDIRVDRFDVQGNKIHIEGHLIEHFDGRTINMRVHIIWFKVDGRWLIHEVRIE | 1.22
TEIEEHIREVSEILTDWIITGNEEMIEKLLDPHARVVIGDKEHHGREVVIRFLRHWRLHRFDHRSFILQGEKAILIGDMDGDINGQRINLHVEEIHIIVDGRLKILEVKYK | 2.7
TEIEKLLDEIVKHFLWAFLTGDWDKVAKLADPNTKSVWNGVDLVGMHLNEHVLEMLIRRYDVIHSIHLRSYRTQGDKLHVDSELNMIQGDKEETVRVRITLHVVNGRLKSIEVRIE | -0.002
TEIKHHVKEMADLFLENLLTGNEDILKKLMDPNALLVVGNKHIHGWEEMIKQWKDVRRHMRIEHVETEDIELQGDKAHIHVNIFGQINGKRKESHVRIHFEVFDGVLRRVEIDER | 1.18
TEKEEIVEETMKQLLHAEETGDWRTIEHLLDPNTRIIVEFNGVEIVLHGREEAVKFMFDFARHWRIKDFKVESIDIQGNKVHMRIRVDMEFNGKHIRTETNIHTVVVDGRIKSHERRVE | 1.63
TEKEELYRKIYELLENLLFTGDEHAWRNNMDPHVKILLNIDGKIHDLHGWHAWHLVLRLLGIDHMEFKDFHVQGDKFHLELTVDFDGREHIMRVDIIVVNGKITSVRVSIE | 1.37
TELDELALKLLEQLIELEATGDWKTLLKLFDPNTRVDIEVGDKKIRLHGREDVIEWVKTVYEHLRFEIRIHSSDAIDGRVHVSTKLIIRIDGRTIEVETHLRVIMIDGKIHEVNTHVH | 1.43
TELDEQVTEVFKINERLKQTGDWKKIIDYVDPHARVEIGEFRDHGRDAAEFTMKYLGIDHFELKRVHLQGNKLHIHGELTVDGRLIHLIIISEKVDGRWITKSMTVD | 0.01
TELDKHLEDFAREFLHAFLTGDEDELRRLLDPNVKFEHDFDGVRFENHGMSALKEFWERVDVIDRFEIHEVRTQGDFIELVFHIDGWVNGRHKRTDSRILLVVINGKIKTIHVKIK | 2.15
TELDKHVEDLLHRFIEALHTGNWEQLEHLVDPDARFDVDGRIHHGREWLLTHMTRIKNARIEFHHIEIYGDYISMRVIIHVNGQTRDFHLELITFNGRIKEVRIWHI | 2.34
TELEDELRKMFESWRHNSRTGNEHAEDNNMDPNVKLLIDGRTVVGMEFYRKWVHEARIEDSHVDHHTVIDGRAHVHMTLNSNYNGVHRRLEIELVSEKIDGKWRLKSIIIR | 1.51
TELEDLVKRLWHIWLHAVLTGDEDLLTKLIDPHARLEIHIGDKEFIHIGREEFVRFMREYHRHLRVERVDERSMEVIGNKSHSDVRTVIHIDGRTIDTRMHIDLIVVNGRVKSLEIHVH | 2.26
TELEEDIVRAWERFVRSLETGNERSIRELMDPNPRIVIGDYEFHGREAIEELLRRIDVIKSVELRHFRLQGEKARLDTTETGHIDGRDVTYETRIISLKVNGVWVLKRIEVR | 1.53
TELEEEAKKYQDFFVTIVVTGDEDSFINLFDPNVRSVVNGRKLHGMHKWKRYIEELLRKIKNLRFELTIHEVNVIDGKVESHMELILRINGVEQRHDLNVHAEKFDGRWLYREIEIR | 1.46
TELEEEVERLMEIFHKAFETGDEHELKRLADPHVRLDFNGRDIHGMDFIIREWLKIKNMRFRIHLDHVELQGEKVHIDGKVEEDFDGVHRHHRVILIWEKYDGRWHHKRMHVK | 1.43
TELEEIFRLALEYLDKIWKTGDEHTLKRMFDPTTLLVVDGKRQHGMEFWREFLERYDHFHHLEVDDYHDVNGVLRLHGVIDGTVNGRRHEIHVHIVASKVNGKWRLKSVIFH | 1.5
TELEELMIKIIRLILRSHNTGDEDEQRKLLDPHVRWHIGDKEIHGRDLIIEHLKEVYERIDHIEFRENHVDIQGEKLHLDGRLIFIQGDKNIEFRVHYHFLIIDGVVDLIEVQIR | 1.5
TELEESAKRAVKHVVDLILTGDWELFEEMFDPHTRILVGDKHMHGREMASEHLRFWYEHLGVKHIEIRRIDVQGDKVVSDVETDIDGRHIRVNLVIHKVDGKWIIHSIHLD | 1.59
TELEHDVIHAFNLIVWAIRTGDEKTYHRLVDPRVQIDIGDKHLHGREDFTRLLREIRVTVRDWDFEHVRFQGDYAILHSRLDIEINIDGRIERIDVHQILFVEKINGRWRHTRESRH | 0.366

Sequence | protease stability score
TELEHKAIEVVEAVFRNLHTGDESLLQELFDPNTKSLIDGVSVVGMHEIYKTIKHLRIEFESIEVHHITNVNGVLLLDVTLRERYRINGVEDEKQTRVHIIVRKIDGRWHLEHVRFH | 1.48
TELEKDAKEFFRIVIEAWLTGDEQKIEHLADPHVRLDINGVELHGWEELIRRLHDELHRYDYMQINVRRVEIQGEKIHVDGELELRFDGKIYRHEVEINILVVNGKNKEQKFVKK | 0.243
TELEKDVVEVLHFLTHAHKTGDEDAINRLLDPHTRIDIDGQEFIGREDALRLWHELRTTHMRIDDRRIQGDKIQVDGQVNYLVNGREEERDVTIHMVKFDGVWVLREIKID | 2.07
TELEKLLKEMSDIIHHAWRTGDEHLVRNLADPNVRFHTQIDGRNDERWGREEMEKALHDWLRHFGVKHIIDKSIELQGDKITIKGHVDVDGVKIDVRIFLIVVNGKLKTMKIEHD | 1.19
TELEREVETFLEMWITAIHTGDWTTLIELIDPHARLDYDGREIHGMEYYVEEFIKRLQEHGARVDIKIDRIDFQGDKVRVIGQLEVIIGEKREVKDVIIYIEKVDGKWRLHHEEIV | 1.37
TELETELEHMVKIVIDSLLTGDEKKLHKQADPHVRHSQGEFEWHTREAMIRFFFELGIDHMTLTEIHLQGDFVEMHIENNINGRRVELRIHWHKFNGKWINRRTHVRHI | 0.698
TELREIFIHFAEMILENIQTGDEDTLDELADPNTRIDINGVTMHGREKISRHWKEHLDRYDHFRIEIKRIRSQGDFAENDVTLVIIYNGQRIRIRMEVEIIFVDGRIHSINERRE | 0.225
TEMEEEIRDSIELLDRAINTGDEEKLRRLFDPNTRREVGDKQHHGRELLIRQIVELGAEHHIHVDHWRLQGDKAVIDGTLNYEFNGREYRTRTTLHLVKINGRWLMHSIHLH | 1.08
TEMEEWSRLAIEIWEEVVRTGNEHDMARLLDPNTRLIVGEKEYHGMETVMHLLERIKNLVLRRFHIEHVRLQGDKVEIDARSVHHVNGRDIETTLKIISFKFNGRWTIRQESII | 0.614
TEMEKRAEHWARLMVDRLKTGDEEVLRKMMDPNTRLEIDGREFIGREEILKSWEELGIKHIIFRHIDIEIVDGVVHVHLDLHVRIGEKDTKIELRVTNEKINGRWVIRSIHIHDI | 1.69
TEMLEEALRFVEQLIKAILTGDESVFRNLVDPNAKNEIDGVEIHGWEFLNVFHKRYDHVTHLHFVLRSVRVYGDKLEMHGVVEIHGVIDGQERNFEVDTEIHVEKINGQWILRSLYVR | 1.11
TEMNDEARRAMKDFIEHLRTGDEDRLDKMLDPHVRMEINGRTFHGREDAIKWHREIRLEDITVKFSTIQGDKVRFFGEEDGIIDGQRHKTEVELIIRKVNGRWFIHEIQVH | 1.27
TENKRDLDLLIKLHLYLHKTGDWERLFKLMDPHARLEVGDFHIHGREEVIRWFVELMERVKNMRFDLQDRKVEVQGEKVIVRSDVEVNIDGVVIRVYLEVDSIKVDGKWHLHSERIELR | 1.29
TEQDEIAERVAREIMTMLLTGDWQRLRELADPHVRTIIDGVHVHGWDRMIEVLEVLHREIRIHDIREHSIKVYNGRVEIITHNDGEIDGQRVESSERHDIIIVNGRIKTIRLDIR | 1.34
TEQEHDMERLIEILIHSWRTGNEDELRRQIDPNARIDIGDKHFHGREFAIKHLSELRIKDFKLQHLDVQGDKVNVEGHLEGEINGRDDRYRYWIFVSKVNGQWFVERFHIV | 1.5
TEQMEWVEDIVRILVESINTGDEHVLKEMLDPNVRIHIGDKNVIGMEFIHRWLKEIRIEHLRVEISDVRFIGDKVKVRGRLKLHVDVDGRRHDVSHDVIIVFEKVDGKWFEREDRLL | 1.23
TERDEHIEEMTDEWIELLFTGDEESLKRLADPDMRVNFNGVEIHGMHNFMRWVLHVLEHWRIEVKIHHKEVQGDKIRVELKQNIHFNGRDIHRDNREHIFVVNGVNKHVILIYR | 1.43
TERDEHSRKMAHALVENFRTGDFETLHDLFDPRYLVILYIDGVDIRLHGREDFLRELKLINDRLGVDRVNLSVKHMEIQGDKVIMHFEEHQGDKTRRSEIRLEIINGRLRTSEWWIH | 0.788
TERDELMKRFAHIFYHWLETGDEESIKKMLDPDTLSIVDGVNLHGRDEHSRWHVELHENLGIDQIHYRLRRVEVQGDKARIDGEEEINGKHVKLRIELEVINGRIKDIRVSVR | 1.45
TERDMFIETYIQIFIEHVRTGDEEALARLADPNVRIRVGDKHLHGWHELRRFFHEWRVKDLDFRDYRYYDGRVEIRGFERVEFNGQERDMEVIFHFVKINGRWYLEETEIR | 2.32
TEREEDVKTAMDHLYEIIETGDWKEIHKLIDPNAKVHIDGRNLIGRELMTKIIEEMSEKYKNLRLELTHFEVQGNKVISHTNNRFDGREVRTLMILTKIDGRWIIHSINLE | 1.11
TEREEENRIARQLFEHDWETGDEDSIHRLADPHALLTDENEKLHGREDVTDWIIKVSRKYKNLQFRVTDQELQGNKLIIYSTSKYNGRTFHLIFFVLKVDGRWHFHHMRIE | 1.36
TEREEEVHHVQRLEWEALRTGNEEYLLRLIDPEVRIRQGDKTLIGREALNLHLKKVKNLQFRDIKLRDFDVQGEKIHLHTELIGEVDGRELKIDIDIHVKKINGRWVIDSFHIN | 1.32
TERHEHVLHLLNLFLEEWLTGDWDKFFRLADPNVKYFINGQDIHGRETIRENHEQKWRELRIREIRVHSVDVVGDKAHADITENLEVNGREIRTRSHLDIVVVNGRVHHVRMHVD | 0.544
TERREVVEQLLRHFFQSTITGDWRDLEHYIDPNARNIVNGKITHGREAITEYYMRFDYFHVDDIIIRERDVIDGQAHLRVEIHGQIEINGRKNRFETHVEIIILKVDGRWVWRSFDIR | 1.33
